From publication PMC8264304

Test system: MexR (CSP18) (Pseudomonas aeruginosa clinical isolate CSP18)
Assay: MST
Settings: MST: 10 mM Tris, 1 mM DTT, room temperature

Substance: mexR-mexA intergenic region
- Kd: 1.1 µM
